Test: yeast display, Sf9 membrane polyspecificity reagent, FACS + sequencing; frameworks hold sequencing errors
Method in brief: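 Using colony PCR, genes from sorted yeast display clones were amplified, then sequenced on MiSeq at 2 × 250 and filtered by CDR length. The clones had been stained with 10% biotinylated, detergent-solubilized Sf9 membrane reagent for 1 hour at 4 °C and sorted by FACS into low and high (top ~1%) gates on anti-HA and streptavidin fluorescence. Polyreactivity labels come from the gate of origin.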
With “QVQLVESVGGLVQAGGSLRLSCAASGIIFVYYVMGWYRQAPGKERELVASIDGSGGSTNYADSVKGRFTISRDNAKNTVYLQMNSLKPEDTAVYYCNADNILYWSTLDYWGQGTQVTVSS” the “polyreactivity (PSR sort gate)” value was “low polyreactivity”.
For “QVQLVESGGGLVQAGGSLRLSCAASGSIFGRNAMGWSRQAPGNERELVARISYIGGSTYYADSVKARFTISRDNAKTTVYLQMNSLKPEDTAVYYCAKRYGFRYKRMDYWGQGTQVTVSS”, the “polyreactivity (PSR sort gate)” value was “low polyreactivity”.
With “QFQLVESVGGLVQAGGSLRLSCAASGLNFSNYAMGWYRQAPGKERELVAVSSSRVSRTYYADSVKGRFTISRDNAKNTVYLQMISLKPEDTAVYYCAARDRTEFYYWGQGTQVTVSS” the “polyreactivity (PSR sort gate)” value was “high polyreactivity”.
In the case of “QVQLVESGGGLVEAGGSLRLSCAASGSIFDDYAMGWYRQAPGEERELVAAITWNGGSTYADSVKGRFTISRDNAKNTVYFQMNSLKPEDTAVYYSAADYFVYWYYGYGYWGQGTQVTVSS”, the “polyreactivity (PSR sort gate)” value is reported as “low polyreactivity”.
For “QVQIVDSGGGLVQAGGSLRLSCAASGSTFIPNDMGWYRQAPGKERELVAAITVSGDDTYYADSVKGRFTISRDNAKNTVYIQMNSLKPDDTAVYYCNVDDPFYSGVVVFDYWGQGTLVTVSS”, the “polyreactivity (PSR sort gate)” value was “low polyreactivity”.
With “QVQLVESGGGLVQAGGSLRLSCAASGRIFSYYAMGWYRQAPGKERELVAAITKSGGSTFYADSVKGRFTISRDNAKNTVYLQMNSLKPEDTAVYYCAAEVTLEDWGYSWKYDYLGQGTQVTVSS” the “polyreactivity (PSR sort gate)” value was “high polyreactivity”.
In the case of “QVQLEESGGGLVQAGGRLRLSCAASGRIYTKYAMGWYRQAPGKERELVAAISGSGGNTYYADSVKGRFTISRDNAKNTVYLQMNSLKPEDTAVYYCNRAKNAYLMDYWGQGTQVTVSS”, the “polyreactivity (PSR sort gate)” value is reported as “high polyreactivity”.
For “QVQLVESGGGLVQAGGSLRLSCAASGRTFKANAMGWYRQAPGKERELVAAISYSGGNTYYADSVKGRFTISRDNAKNTVYLQMNSLKPEDTAVYYCAARRGYGRENQFYSWGQGTQVTVSS”, the “polyreactivity (PSR sort gate)” value was “high polyreactivity”.
For “QVQLVESGGGLVQAGGSLRLSCAASGRTFYYYYTMGWYRQAPGKERELVAAISRSGSTNYADSVKGRFTISRDNAKNTVYLQMNSLKPEDTAVYYCAKETNRVGRYHCGQGTQVTVSS”, the “polyreactivity (PSR sort gate)” value was “low polyreactivity”.
With “QVQLVESGGGLVQAGGSLRLSCAASGRIFYRYAMGWDSQAPGKERELVAAISCGGSTYYADSVKGRFTISRDNAKNTVYLQMNSLKPEDSAVYYCAATWGRGTYYLYYYWGQGTQVTVSS” the “polyreactivity (PSR sort gate)” value was “high polyreactivity”.
With “QVQLVESGGGLVQAGGSLRLSCAASGRILGAYAMGWYRQAPGKERELVASISSGGRTYYADSVKGRFTISRDNAKNTVYLQMNSLKPEDTAVYYCAAYVYTSFLYYYWGQGTQVTVSS” the “polyreactivity (PSR sort gate)” value was “high polyreactivity”.
In the case of “QVQLVESGGRLVQAGGSLRLSCAASGFIYTPNTMGWYRQAHRKERELVAAITTNGGRTYYADSVKGRFTISRDNAKNTVYFQMNSVKPEDTAVYYCAARYVSSFGLHAQVWSYYYWGLGTQVTVSS”, the “polyreactivity (PSR sort gate)” value is reported as “high polyreactivity”.
In the case of “QVQLGESGGGLVQAGGSLRLICAASGSTTPGNAMGWYRQAPGKQREFDADINSGGGTNYADSVKGRFTISRDNAKNNVYLQMNSLKPEDTAVYYCAKGYRRSFIGYWYLKYGYWGQGTQVTVSS”, the “polyreactivity (PSR sort gate)” value is reported as “high polyreactivity”.
With “QVQLVESGGGLVQAGGSLRLSCAASGITFYGYAMGWYIQAPGKERELVASITSTGSTNYADSVKGRFTISRDNAKNTVYLQMNSLKPEDTAVYYCAARYREVYRSKRKLGYWGQGTQVTVSS” the “polyreactivity (PSR sort gate)” value was “high polyreactivity”.
With “QVQLEESGGGLVQAGGSLRLSCAASGRSFNHNAMGWYRQAPGKERELVAAINQSGSSTYYADSVKGRFTISRDNAKNTVYLQMNSLKREDTAVYYCAAVCNGVDYEYWGQGTQVTVSS” the “polyreactivity (PSR sort gate)” value was “low polyreactivity”.
For “QVQLQESGSGLVQAGGSLRLGCAASGNISDAGYMGWYRQAPGKEREFVAAIAAGSNTNYADSVKGRFTISRDNAKNTVYLQLNSLKPEVTAVFYCAVASYARVQYEYWGQGTQVTVNS”, the “polyreactivity (PSR sort gate)” value was “low polyreactivity”.
For “QVQLVESGGGLVQEGGSLRLSCAATGLTFVYYEMGWYRQAPGKERELVADITYIGTSTYYADSVKGRFTISLDNAKNTVYLQMNSLKPEDTEVYYCAAPFPIRSGESWRTDLGYDYWGQGTQVTVSS”, the “polyreactivity (PSR sort gate)” value was “low polyreactivity”.
In the case of “QVQLVESGGGLVQAGGSLRLSCAAYGRIFVFYDMGWYRQAPGKDRELVATISFRGGSTYYADSVKGRFTISRDNAKNTVYLQMNCLKPEDTAVYYCAKENKRGYSTSGYYYWGQGTQVTVSS”, the “polyreactivity (PSR sort gate)” value is reported as “low polyreactivity”.
In the case of “QVQLVESGGGLVQAGGSLRLSCPASGSTFYEYAMGWYRQEPGKERELVAAITSGGSTYYADSVKGRFTISRDNAKYTVYLQLNSQKPEDTAVYYCAADPRIRRGDRSTHGYDYWGQGTQVTVSS”, the “polyreactivity (PSR sort gate)” value is reported as “low polyreactivity”.
For “QVQLVESGGGLVQAGGSLRLSCAASGIILWYNVMGWYRQAPGKERELVASITGDGDDTYYADSVKGRFTMSRDNAKNTVYLQMNSLKPEDTAVYYCAKENYGILYSTLYDYWGQGTQVTVSS”, the “polyreactivity (PSR sort gate)” value was “low polyreactivity”.
In the case of “QVQLVESGGGLVKAGGSLRLSCAASGRTFLRNAMGWYRQAPGKERELVATITRGGSTYYADSVKGRFTISRDNAKNTVYLQMNSLKPEDTAVYYCAKDITGGFRRPDYGYWGHGTQVTVSS”, the “polyreactivity (PSR sort gate)” value is reported as “low polyreactivity”.
In the case of “QVQLVESGGGLVQAGGSLRLSCAASGFIFPKNAMGWYRQAPGKERELVAAISRSSGNTYYADSVKGRFTISRDNAKNTVYLQMNSLKPEDTAVYYCAASYWPYRGPVGGSKMYYWGQGTQVTVSS”, the “polyreactivity (PSR sort gate)” value is reported as “high polyreactivity”.
With “QVQLVESGGGLVQAGGSLRLSCAASGFIFPEYAMGWYRQAPGKERELVAAINWSGGNTYYADSVKGRFTISRDNAKNTVYLQMNSLKPEDTAVYYCNVDDWVTDDDYWGQGTQVTVSS” the “polyreactivity (PSR sort gate)” value was “low polyreactivity”.
For “QVQLVESGGGLVQAGGTLRLSCAASGSTFKYYAMGWYRQAPGKEREFVASINWSGVSTYYADSVKGRFTISRDNAKNTVYLQMNSLKPEDTAVYYCAARVRGKYDYWGQGTQVTVSS”, the “polyreactivity (PSR sort gate)” value was “high polyreactivity”.
With “QVQLVESGGGLVQAGGSLRLSCAASGSTFYFYAMGWYRQAPGKERELVAAITGSGGSTYYADSVKGRFTISRDNAKNTVYLQMNSLKPEDTAVYYCAARFSYWKTKRAYDWGQGTQVTVSS” the “polyreactivity (PSR sort gate)” value was “high polyreactivity”.
With “QVQLVESGGGLVQTGGSLRLSCAASGSTYYYYAMGWSRPAPGKERELVAGISWGGGSTYFADSVKGRFTISRDNAMNSVYLQMNSLKPEDTAVYYCNALNPKSYDYWGQGTQVTVSS” the “polyreactivity (PSR sort gate)” value was “low polyreactivity”.
In the case of “QVQLVESGGGLVQAGGSLRLSCAASGYIFDIYDMGWYRQATGKERELVAAITDYADSVKGRFTISRDNAKNTVYLQMNSLKPEDTAVYYCNVKFLVQPVTSVIGDYWGQGTQVTVSS”, the “polyreactivity (PSR sort gate)” value is reported as “low polyreactivity”.
With “QVHLVESGGGLVQAGGSLRLSCAASGSTFYRYAMGWYRQAPGKEREFVAAISTRGGSTHYADSVKGRFTISRDNAKNTVYLQMNSLKPEDTAVSYCNARGYYSVPSNTGIRYYRFDYWGQGTQVTVSS” the “polyreactivity (PSR sort gate)” value was “low polyreactivity”.
For “QVQLVESGGGLVQAGGSLRLSCAASGRIFSGNTMGWYRPAPGKERELVAAISKSGGRTYYADSVKGRFPISRVNAKNTVYLQMNSLKPEDTAVYYCNADYRSHYLYDYWGQGTQVTVSS”, the “polyreactivity (PSR sort gate)” value was “low polyreactivity”.
With “QVQLVESGGGLVQAGGILRLSCAARTFVNYDMGWTRQAHGKERELVAAISSSGGSTNYADSVKGRFTISRDNAKNTVYLQMKSLKPEDTAVYYCAAASRRQVIPAMYYWGQGTQVTVSS” the “polyreactivity (PSR sort gate)” value was “high polyreactivity”.
For “QVHLVESGGGLVQAGGSLRLSCAASGSIFYYNAMGSYRHAPGKERELVAAINWSGDRTYYADSVKGRFTISRDNAKNTVYLQMNSLKPEYTAVYYCAATAWPGRYWRQEVDYWGQGTQVTVSS”, the “polyreactivity (PSR sort gate)” value was “high polyreactivity”.
In the case of “QVQLVESGGGLVQAGGSLRLSCAASGGISYRYAMGWYRQAPGKERELVAAISGRGTSTYYADSVKGRFTISRDNAKNTVYLQMNSLKTEDTAVYYCNAQVGNFGYRSGGYDYWGQGTQVTVSS”, the “polyreactivity (PSR sort gate)” value is reported as “high polyreactivity”.
With “QVQLVESGGGLVQAGGSLRLSSAASGSIFYQYAMGWYRQAPGKERQLVAAISRSGGSTYYAESVKGRFTISRDNAKNTVYLQMNSLIPEDTAVYYCATDIYSRWAGYKRSQYDYWGQGTQVTVSS” the “polyreactivity (PSR sort gate)” value was “high polyreactivity”.
For “QVQLVESGGGLLQAGGSLRLSCAASGFIFYDYAMGWYRQAPGKERELVAAITKPGGSTYYADSEKGRFTISRDNAKNTVYLQMNSLKPEDTAGYYCAADVMYYHKLTYGYDYWGQGTQVTVSS”, the “polyreactivity (PSR sort gate)” value was “high polyreactivity”.
In the case of “QVQLVESGGGLVQAGGSLRLSCAASGSTFIDYAMGWYRQAPGKEREFVAGISSGDSTDYADSVKGRFTISRDNAKNTVYLQMNSLKPEDTAVYYCNADWNPTERWFYWYTPLGYDYWGQGTQVTVSS”, the “polyreactivity (PSR sort gate)” value is reported as “low polyreactivity”.
With “QVQLVESGGGLVQAGGSLRLSCAASGSTLHLYAMGWYRQAPGKERELVADITSGGDTYYADSVKGRFTISRDNAKNTVYLQMNSLKPEDTAVYYCNAVYEGRYEYAYYYRYDYWGQGTQVTLSS” the “polyreactivity (PSR sort gate)” value was “high polyreactivity”.
For “QVQLVDSGGGLDQAGGSLRLSCAASGYTFWLYAMGWYRQAPGKERELVAAISRGGITNYADSVKGRFTISRDNAKNTVYLQMNSLKPEDTAVYYCAAEYRGRGWRYGYDDWGQGTQVTVSS”, the “polyreactivity (PSR sort gate)” value was “high polyreactivity”.
In the case of “QVQLVESGGGLVQAGGSLRITCAASGSIFYSNVMGWSRPAPGKERELVARITDAGSTNYADSVKGRFTISRDYAKNTVYLQMYSLKPEDTAVYYCIARLVIYTYDYWGQGTQVTVSS”, the “polyreactivity (PSR sort gate)” value is reported as “low polyreactivity”.
With “QVQLVESGGGLVQAGGSLRLICAASGSTFGFYGMGWYRQAPGKERELVASIDSRGDSTYADSVKGRFTISRDNAKKTVYVQMNSLKPEDTAVYYCAAESWYTWFDSWGQGTQVTVSS” the “polyreactivity (PSR sort gate)” value was “low polyreactivity”.
For “QVQLVESGGGLVQAGGSLRLSCAASGRIFSYYTMGWYRQAPGKERELVAAISSGGSTNYADSVKGRFTISRDNAKNTVYLQMNSLKPEDTAVYYCAVRSGRRNYDRPAFGYWGQGTQVTVSS”, the “polyreactivity (PSR sort gate)” value was “high polyreactivity”.
For “QVQLVESGGGLVQAGGSLRLSCAASGRIFPWYTMGWYRQAPGKERELVAVISSGGRTHYADSVKGRFTISRDNAKNTVYLQMNSLKPEDTAVYYCAAESRYQRYDYWGQGTQVTVSS”, the “polyreactivity (PSR sort gate)” value was “high polyreactivity”.
For “QVQLVDSGGGLVQAGGSLRLSCAASGRTFRGNVMGWYRQAPGKEREFVAAITKSDGSTYYADSVKGRFTISRDNAKNTVYLQKNSLKPEDTAVYYCAARTARTGWPWFRYDYWGQGTQVTVSS”, the “polyreactivity (PSR sort gate)” value was “low polyreactivity”.
For “QVQLQESGGGLVQAGGSLRLSCAASGSISGPHVMGWYRQAPGKEREFVAAINVGANTYYADNVKGRFTISRDNAKNTVYLQMNSLKPEDTAVYYCAAEYGIYETGHYGIYDYWGQGTQVTVSS”, the “polyreactivity (PSR sort gate)” value was “low polyreactivity”.

Reference: the nanobody polyreactivity screen of Harvey et al. (2022)
